In paper PMC4609182:

Molecular target: T1, Parkin R0RBR module (RING0, RING1, IBR, RING2), wild type (rat), Q9JK66
T1 chain: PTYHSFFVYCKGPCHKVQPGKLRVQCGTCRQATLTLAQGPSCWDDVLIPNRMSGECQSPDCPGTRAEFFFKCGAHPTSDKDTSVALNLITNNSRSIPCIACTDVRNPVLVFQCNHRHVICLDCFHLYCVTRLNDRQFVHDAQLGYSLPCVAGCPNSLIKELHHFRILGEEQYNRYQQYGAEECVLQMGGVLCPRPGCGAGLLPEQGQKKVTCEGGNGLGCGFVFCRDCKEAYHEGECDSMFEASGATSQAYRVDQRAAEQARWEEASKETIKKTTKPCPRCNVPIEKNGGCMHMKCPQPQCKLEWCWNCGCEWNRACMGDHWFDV
Test: ITC; R0RBR (wild type or L266K) titrated with Ubl or pUbl; 20°C; 50 mM Tris–HCl pH 7.4, 150 mM NaCl, 1 mM TCEP; stoichiometry determined experimentally

Kd: 16 µM
B1: Parkin Ubl domain (ubiquitin-like domain), unmodified (domain or fragment)
chain: MIVFVRFNSSYGFPVEVDSDTSIFQLKEVVAKRQGVPADQLRVIFAGKELQNHLTVQNCDLEQQSIVHIVQRPQRK
modifications: not checked
